According to patent publication US20180017550A1:

How the values were obtained:
[1] = target: wild-type human APC segment 3 of Exon 15 (codons 1,099 to 1,696) with N-terminal VSV-G and HSV epito (human) (UniProt P25054)
[2] = target: human alpha-tubulin, cell-free expressed with C-terminal HSV epitope tag and polyhistidine tag (human) (UniProt P50607); test: protein adsorbed to polystyrene 96-well plate, anti-HSV-AP chemiluminescence; against the minus DNA negative control
[3] = target: human p53 oncoprotein (cellular tumor antigen p53), cell-free expressed from pETBlue-2 with C-terminal HSV epitope tag and polyhistidine tag (human) (UniProt P04637); test: as above
[4] = target: human glutathione-s-transferase A2 (GST A2), cell-free expressed from pETBlue-2 with C-terminal HSV epitope tag and polyhistidine tag (human) (UniProt P09210); test: BODIPY-FL labelled GST photo-released from magnetic beads and captured on anti-HSV antibody coated substrate; against the minus DNA blank
Chain of human glutathione-s-transferase A2 (GST A2), cell-free expressed from pETBlue-2 with C-terminal HSV epitope tag and polyhistidine tag (human) (P09210 other isoform, or with tags, fused parts or gaps): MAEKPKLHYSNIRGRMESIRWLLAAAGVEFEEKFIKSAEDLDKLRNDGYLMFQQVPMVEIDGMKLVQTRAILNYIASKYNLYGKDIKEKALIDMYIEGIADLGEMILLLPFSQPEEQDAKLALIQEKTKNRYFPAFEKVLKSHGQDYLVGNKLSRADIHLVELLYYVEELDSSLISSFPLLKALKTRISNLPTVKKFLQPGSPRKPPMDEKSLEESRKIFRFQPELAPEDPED

[5] = target: human glutathione-s-transferase A2 (GST A2), cell-free expressed from pETBlue-2 with C-terminal HSV epitope tag and polyhistidine tag (human) (UniProt P09210); test: cell-free expressed HSV-tagged GST captured on anti-HSV PC-antibody NeutrAvidin agarose beads; fractions quantified by fluorescence SDS-PAGE
[6] = target: human dihydrofolate reductase (DHFR), cell-free expressed with C-terminal HSV and polyhistidine epitope tags (human) (UniProt P00374); test: antibody-protein complex photo-released from beads, held on nickel chelate plate by the protein's polyhistidine tag; bound anti-HSV antibody read with anti-[mouse IgG] HRP; against the minus DNA negative control
[7] = target: human glutathione-s-transferase A2 (GST A2), cell-free expressed from pETBlue-2 with C-terminal HSV epitope tag and polyhistidine tag (human) (UniProt P09210); test: as above

Chain of wild-type human APC segment 3 of Exon 15 (codons 1,099 to 1,696) with N-terminal VSV-G and HSV epito (human) (P25054 other isoform, or with tags, fused parts or gaps limits assumed): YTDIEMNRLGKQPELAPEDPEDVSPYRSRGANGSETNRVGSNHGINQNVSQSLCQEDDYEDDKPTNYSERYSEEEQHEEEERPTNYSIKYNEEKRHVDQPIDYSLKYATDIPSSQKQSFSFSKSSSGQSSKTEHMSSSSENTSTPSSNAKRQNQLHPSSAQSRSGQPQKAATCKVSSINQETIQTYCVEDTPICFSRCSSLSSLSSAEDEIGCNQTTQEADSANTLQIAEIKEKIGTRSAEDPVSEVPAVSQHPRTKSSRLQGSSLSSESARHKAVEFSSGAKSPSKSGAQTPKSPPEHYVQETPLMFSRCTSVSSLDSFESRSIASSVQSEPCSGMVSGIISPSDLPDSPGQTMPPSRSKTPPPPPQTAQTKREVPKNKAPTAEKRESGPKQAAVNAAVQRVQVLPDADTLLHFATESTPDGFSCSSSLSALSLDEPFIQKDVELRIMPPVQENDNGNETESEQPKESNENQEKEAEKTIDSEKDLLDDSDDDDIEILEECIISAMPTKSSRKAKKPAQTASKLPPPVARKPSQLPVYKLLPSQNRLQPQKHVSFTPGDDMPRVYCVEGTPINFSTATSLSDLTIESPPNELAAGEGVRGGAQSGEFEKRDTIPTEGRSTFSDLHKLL

Substance	signal to noise ratio [1]	signal to noise ratio [2]	signal to noise ratio [3]	signal to noise ratio [4]	percent of total GST bound [5]	percent of total GST not bound [5]	signal to noise ratio [6]	signal to noise ratio [7]
anti-VSV antibody conjugated to the Cy3 fluorophore (clone P5D4; Sigma-Aldrich, St. Louis, Mo.)	186 :1							
mouse monoclonal anti-HSV tag antibody (EMD Biosciences, Inc., San Diego, Calif.)		140 :1	609 :1	9 :1	75%	25%	19 :1	108 :1
